Biological target: Recombinant TRAF-USP7 (residues 55 to 208) (UniProt Q93009 55-208)
Assay: SPR

Recombinant TRAF-USP7 (residues 55 to 208), sequence (Q93009 55-208): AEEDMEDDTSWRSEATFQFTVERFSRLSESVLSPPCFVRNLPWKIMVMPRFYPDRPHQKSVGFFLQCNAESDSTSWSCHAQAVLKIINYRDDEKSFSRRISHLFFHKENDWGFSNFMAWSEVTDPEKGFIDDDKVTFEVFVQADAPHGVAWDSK

- Kd: 18 nM
B1: Recombinant BTB-Keap1 (residues 48 to 180) (domain or fragment, UniProt Q14145 48-180, looked up)
chain: GNRTFSYTLEDHTKQAFGIMNELRLSQQLCDVTLQVKYQDAPAAQFMAHKVVLASSSPVFKAMFTNGLREQGMEVVSIEGIHPKVMERLIEFAYTASISMGEKCVLHVMNGAVMYQIDSVVRACSDFLVQQLD

Reference: PMC9365288 (Science Advances, 2022)
